From patent US7875585 (dated 2011)

B2: L-selectin on rat thoracic duct lymphocytes (receptor, UniProt P30836 39-372, looked up)
chain: WTYHYSERSMNWENARKFCKHNYTDLVAIQNKREIEYLEKTLPKNPTYYWIGIRKIGKTWTWVGTNKTLTKEAENWGTGEPNNKKSKEDCVEIYIKRERDSGKWNDDACHKRKAALCYTASCQPESCNRHGECVETINNNTCICDPGYYGPQCQYVIQCEPLKAPELGTMNCIHPLGDFSFQSQCAFNCSEGSELLGNAKTECGASGNWTYLEPICQVIQCMPLAAPDLGTMECSHPLANFSFTSACTFTCSEETDLIGERKTVCRSSGSWSSPSPICQKTKRSFSKIKEGDYNPLFIPVAVMVTAFSGLAFIIWLARRLKKGKKSQERMDDPY
notes: whole, on cells; also called rat L-selectin; TDL L-selectin

Legend:
[1] = target: PSGL-1 from KG1a cells (human) (UniProt Q14242); assay: fixed KG1a cells treated with PL-1 (10 µg/ml), rat lymphocyte (L-selectin) rolling at 4.4 dynes/cm^2
[2] = target: PSGL-1 from HL60 cells (human) (UniProt Q14242); assay: fixed HL60 cells treated with PL-1 (10 µg/ml), rat lymphocyte (L-selectin) rolling at 4.4 dynes/cm^2
[3] = target: L-selectin on human lymphocytes or neutrophils (human) (UniProt P14151); assay: Stamper-Woodruff assay, human lymphocytes treated with LAM1-3, on immunoprecipitated KG1a CD44
[4] = target: L-selectin on lymphocytes (human or rat not given); assay: cell-based or functional assay
[5] = target: L-selectin on human lymphocytes or neutrophils (human) (UniProt P14151); assay: cell-based or functional assay
[6] = target: L-selectin on rat thoracic duct lymphocytes (rat) (UniProt P30836); assay: cell-based or functional assay
[7] = target: L-selectin on lymphocytes (human or rat not given); assay: Stamper-Woodruff assay, equimolar amounts of KG1a CD44 and PSGL-1, 80 rpm
[8] = target: L-selectin on lymphocytes (human or rat not given); assay: blot rolling assay, lymphocytes over blotted KG1a membrane protein, 2.3 dynes/cm^2
[9] = target: L-selectin on lymphocytes (human or rat not given); assay: Stamper-Woodruff assay, lymphocytes on immunoprecipitate spotted on glass
[10] = target: T1, human E-selectin on CHO-E cells (human, UniProt P16581 22-610); assay: blot rolling assay, CHO-E cells over blotted HL60 membrane protein
T1 construct: whole, on cells; also called CD62E
T1 sequence (looked up): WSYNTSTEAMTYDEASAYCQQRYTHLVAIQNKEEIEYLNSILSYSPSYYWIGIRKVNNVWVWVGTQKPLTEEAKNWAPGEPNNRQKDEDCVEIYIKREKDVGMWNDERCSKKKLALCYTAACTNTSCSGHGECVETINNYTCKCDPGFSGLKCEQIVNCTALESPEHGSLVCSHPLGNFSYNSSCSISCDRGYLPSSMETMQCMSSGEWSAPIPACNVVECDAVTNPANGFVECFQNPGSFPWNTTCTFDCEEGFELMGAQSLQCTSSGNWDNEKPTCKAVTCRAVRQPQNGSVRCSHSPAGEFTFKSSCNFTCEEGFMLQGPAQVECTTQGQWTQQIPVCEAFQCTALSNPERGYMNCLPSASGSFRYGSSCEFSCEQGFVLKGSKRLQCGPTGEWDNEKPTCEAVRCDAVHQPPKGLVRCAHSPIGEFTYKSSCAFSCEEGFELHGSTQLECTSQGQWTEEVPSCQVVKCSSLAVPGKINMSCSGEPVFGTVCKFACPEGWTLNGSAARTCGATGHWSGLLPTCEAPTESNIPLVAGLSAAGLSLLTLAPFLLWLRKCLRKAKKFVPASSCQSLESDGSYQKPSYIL
Protocol: The blot rolling assay was performed as previously described (Dimitroff et al., 2000). Briefly, CHO-E, CHO-P or CHO-Mock transfectants were isolated as described above, washed twice in HBSS and suspended at 10^7/ml in HBSS/10 mM HEPES/2mMCaCl_2 (H/H/Ca++)/10% glycerol. […] The blots were then placed in the parallel-plate flow chamber, and CHO transfectants (2×10^6/ml) were perfused into the chamber. After allowing the cells to come in contact with the blotting membrane, the flow rate was adjusted to exert a shear stress of 3.8 dynes/cm^2. The viscosity of 10% glycerol adhesion assay medium was considered in the calculation of shear stress values. The number of cells rolling on and between each immunostained banding region was quantified under 100× magnification within each field of view on the video monitor using molecular weight markers (Kaleidoscope Molecular Weight Markers, Bio-Rad Lab.; See Blue® from Novex, Inc.) as guides to help align and visualize the apparent molecular weights of the proteins of interest. A minimum of 3 experiments was performed and results were expressed as the mean±SD of cell rolling/field at 100× magnification. […]

[11] = target: T2, CD34 immunoprecipitated from KG1a cells (human, UniProt P28906 32-385); assay: Stamper-Woodruff assay, 80 rpm, rat thoracic duct lymphocytes
T2 construct: mature; also called KG1a CD34; CD34 (Molecular Control)
T2 sequence (looked up): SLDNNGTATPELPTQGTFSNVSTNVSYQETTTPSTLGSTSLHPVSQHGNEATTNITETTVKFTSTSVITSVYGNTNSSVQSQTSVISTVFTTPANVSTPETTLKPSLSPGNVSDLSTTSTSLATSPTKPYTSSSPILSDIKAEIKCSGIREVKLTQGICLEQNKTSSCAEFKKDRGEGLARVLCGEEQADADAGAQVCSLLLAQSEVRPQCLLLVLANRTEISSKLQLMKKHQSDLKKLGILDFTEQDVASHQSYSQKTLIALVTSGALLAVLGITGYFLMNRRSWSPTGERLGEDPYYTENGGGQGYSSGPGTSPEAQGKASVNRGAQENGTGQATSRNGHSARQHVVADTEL
Protocol: (§1) Lymphocytes (10^7/ml RPMI-1640 without NaBicarbonate/5'/oFBS) were overlayed onto these fixed immunoprecipitates and incubated on an orbital shaker at 80 rpm for 30 min. at 4° C. The number of adherent lymphocytes was quantified by light microscopy using an ocular grid under 100× magnification (a minimum of 5 fields/slide, 2 slides/experiment, and 3 separate experiments). Data were presented as the mean number of bound lymphocytes±standard deviation. KG1a CD34 and L-selectin control immunoprecipitates were also tested in this manner. To verify the dependence for sialic acid, glutaraldehyde-fixed spots were treated with *Vibrio cholerae* neuraminidase (0.1U/ml RPMI-1640 without NaBicarbonate/2% FBS for 1 hr at 37° C.). In addition, to verify that cellular adhesion was dependent on L-selectin, all assays included negative controls, in which lymphocytes were treated with PMA (50 ng/ml for 30 min at 37° C.) or functional blocking antibodies (anti-rat-L-selectin moAb HRL-1 or anti-human L-selectin moAb LAM1-3;10 µg/ml), or lymphocyte suspensions contained 5 mM EDTA.
(§2) [2]The average number of bound lymphocytes from 5 fields of view at 100x mag. from duplicate slides and a minimum of three experiments. […]

[12] = target: B2; assay: as above
Protocol: as §1, §2

Q: Which % Control Mean Lymphocyte Binding (% of untreated control) [1] does the source give for anti-PSGL-1 monoclonal antibody PL-1 here?
A: Its % Control Mean Lymphocyte Binding (% of untreated control) is 105.

Q: And the % Control Mean Lymphocyte Binding (% of untreated control) [2]?
A: Its % Control Mean Lymphocyte Binding (% of untreated control) is 62.5.

Q: Which bound cells/field left after the antibody (bound cells/field) [3] does the source give for “anti-human L-selectin monoclonal antibody LAM1-3” here?
A: Its bound cells/field left after the antibody (bound cells/field) is less than 10.

Q: What does the source list for “hematopoietic cell E-selectin/L-selectin ligand (HCELL), the CD44 glycoform of KG1a cells (from UniProt P16070 21-742)”?
A: L-selectin-mediated lymphocyte adherence to KG1a cells against HL60 cells at 80 rpm, Stamper-Woodruff assay [4]: 10 fold; frequency of rolling lymphocytes on KG1a cells against HL60 cells, parallel-plate flow chamber [4]: < 5 fold; L-selectin-mediated neutrophil rolling on KG1a cells against HL60 cells, parallel-plate flow chamber [5]: 4 fold; % Control Mean Lymphocyte Binding; KG1a Cells + mocarhagin (% of untreated control) [6]: 110; % Control Mean Lymphocyte Binding; KG1a Cells +Neur. + DMSO (% of untreated control) [6]: 103; % Control Mean Lymphocyte Binding; KG1a Cells +Neur. + Tunicamycin (15 µg/ml) (% of untreated control) [6]: 34.3; % Control Mean Lymphocyte Binding; KG1a Cells +OSGE (60 µg/ml) (% of untreated control) [6]: 104; % Control Mean Lymphocyte Binding; KG1a Cells +neuraminidase (Neur.) (0.1 U/ml) (% of untreated control) [6]: 0.3; fold lymphocyte binding compared with PSGL-1 [7]: < 10 fold; fold L-selectin ligand activity compared to other bands [8]: < 6 fold; bound cells/field (bound cells/field) [9]: 362

B1: PSGL-1 from HL60 cells (ligand, human, UniProt Q14242 42-412, looked up)
chain: QATEYEYLDYDFLPETEPPEMLRNSTDTTPLTGPGTPESTTVEPAARRSTGLDAGGAVTELTTELANMGNLSTDSAAMEIQTTQPAATEAQTTQPVPTEAQTTPLAATEAQTTRLTATEAQTTPLAATEAQTTPPAATEAQTTQPTGLEAQTTAPAAMEAQTTAPAAMEAQTTPPAAMEAQTTQTTAMEAQTTAPEATEAQTTQPTATEAQTTPLAAMEALSTEPSATEALSMEPTTKRGLFIPFSVSSVTHKGIPMAASNLSVNYPVGAPDHISVKQCLLAILILALVATIFFVCTVVLAVRLSRKGHMYPVRNYSPTEMVCISSLLPDGGEGPSATANGGLSKAKSPGLTPEPREDREGDDLTLHSFLP
modifications: HECA-452-reactive glycans
notes: mature; also called HL60 PSGL-1; PSGL-1/CLA
Q: Does B1 bind [10]?
A: Result: binds

Q: Does B2 bind [11]?
A: Result: no binding

B3: L-selectin immunoprecipitated from KG1a cells (receptor, human, UniProt P14151 39-372, looked up)
chain: WTYHYSEKPMNWQRARRFCRDNYTDLVAIQNKAEIEYLEKTLPFSRSYYWIGIRKIGGIWTWVGTNKSLTEEAENWGDGEPNNKKNKEDCVEIYIKRNKDAGKWNDDACHKLKAALCYTASCQPWSCSGHGECVEIINNYTCNCDVGYYGPQCQFVIQCEPLEAPELGTMDCTHPLGNFSFSSQCAFSCSEGTNLTGIEETTCGPFGNWSSPEPTCQVIQCEPLSAPDLGIMNCSHPLASFSFTSACTFICSEGTELIGKKKTICESSGIWSNPSPICQKLDKSFSMIKEGDYNPLFIPVAVMVTAFSGLAFIIWLARRLKKGKKSKRSMNDPY
notes: mature; also called L-selectin (Molecular Control)
Q: Does B3 bind [12]?
A: Result: no binding
